# B1: Abl interactor 1 (Homo sapiens), Q8IZP0 (parent)
# chain: MAELQMLLEEEIPSGKRALIESYQNLTRVADYCENNYIQATDKRKALEETKAYTTQSLASVAYQINALANNVLQLLDIQASQLRRMESSINHISQTVDIHKEKVARREIGILTTNKNTSRTHKIIAPANMERPVRYIRKPIDYTVLDDVGHGVKWLKAKHGNNQPARTGTLSRTNPPTQKPPSPPMSGRGTLGRNTPYKTLEPVKPPTVPNDYMTSPARLGSQHSPGRTASLNQRPRTHSGSSGGSGSRENSGSSSIGIPIAVPTPSPPTIGPENISVPPPSGAPPAPPLAPLLPVSTVIAAPGSAPGSQYGTMTRQISRHNSTTSSTSSGGYRRTPSVTAQFSAQPHVNGGPLYSQNSISIAPPPPPMPQLTPQIPLTGFVARVQENIADSPTPPPPPPPDDIPMFDDSPPPPPPPPVDYEDEEAAVVQYNDPYADGDPAWAPKNYIEKVVAIYDYTKDKDDELSFMEGAIIYVIKKNDDGWYEGVCNRVTGLFPGNYVESIMHYTD
# Variants of: B1
# Settings: with p85a_human PIK3R1, P27986
# Chain of p85a_human PIK3R1, P27986 (P27986 whole entry): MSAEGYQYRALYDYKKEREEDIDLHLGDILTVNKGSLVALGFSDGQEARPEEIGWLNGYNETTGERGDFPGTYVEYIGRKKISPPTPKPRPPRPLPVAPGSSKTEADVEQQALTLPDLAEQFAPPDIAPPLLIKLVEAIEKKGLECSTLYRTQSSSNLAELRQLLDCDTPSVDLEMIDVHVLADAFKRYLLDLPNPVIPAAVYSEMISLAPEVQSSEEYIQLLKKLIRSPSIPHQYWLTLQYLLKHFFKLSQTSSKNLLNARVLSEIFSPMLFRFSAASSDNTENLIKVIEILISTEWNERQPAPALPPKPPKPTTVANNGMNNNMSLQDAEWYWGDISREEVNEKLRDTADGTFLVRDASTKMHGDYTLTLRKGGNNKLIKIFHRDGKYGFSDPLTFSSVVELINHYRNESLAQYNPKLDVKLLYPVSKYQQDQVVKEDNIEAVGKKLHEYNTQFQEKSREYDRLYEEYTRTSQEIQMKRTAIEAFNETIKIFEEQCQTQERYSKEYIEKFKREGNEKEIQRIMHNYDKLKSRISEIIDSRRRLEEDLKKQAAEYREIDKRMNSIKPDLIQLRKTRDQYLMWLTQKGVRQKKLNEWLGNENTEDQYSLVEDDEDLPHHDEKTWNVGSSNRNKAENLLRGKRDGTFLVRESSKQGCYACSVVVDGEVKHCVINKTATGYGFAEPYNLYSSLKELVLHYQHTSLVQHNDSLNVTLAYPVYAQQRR
row,Variant,effect of a mutation on the interaction
1,Y213F,disrupting interaction

# — IntAct's records for PubMed 20598684
